Experimental data as given in publication PMC3653949, “Dissection of Agonistic and Blocking Effects of CD200 Receptor Antibodies” (PLoS ONE, 2013).

Target: T1, CD200R(1)-rCD4d3+4 (extracellular domains of mouse CD200R allele 1 fused to rat CD4 domains 3 and 4) (mouse, UniProt Q9ES57 26-238, biotin at the biotinylation site)
T1 construct: mouse CD200R, allele CD200R(1) of C57BL/6 mice, the two extracellular domains; also called mCD200R; CD200R(1) rCD4d3+d4; source: 293T cells, transfected (pEF-BOS), tissue culture supernatant concentrated and biotinylated
T1 sequence (looked up): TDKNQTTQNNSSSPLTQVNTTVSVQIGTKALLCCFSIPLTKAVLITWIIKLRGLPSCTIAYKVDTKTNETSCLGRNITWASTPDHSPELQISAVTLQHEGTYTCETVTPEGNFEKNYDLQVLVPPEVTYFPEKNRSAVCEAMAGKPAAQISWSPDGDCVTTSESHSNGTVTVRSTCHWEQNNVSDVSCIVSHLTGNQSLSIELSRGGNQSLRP
Test: SPR; biotinylated CD200R(1)-rCD4d3+4, CD200R(2)-rCD4d3+4 and rCD4d3+4 from tissue culture supernatants immobilized on streptavidin coupled CM5 chip (726, 704, 681 RU); purified, gel filtered CD200-rCD4d3+4 (0.75 µM) passed over; BIAcore 3000, 25°C
Conditions: both partners purified

binding result: binds
B1: mouse CD200-rCD4d3+4 (extracellular domains of mouse CD200 fused to rat CD4 domains 3 and 4) (ligand, UniProt O54901 31-232, looked up)
chain: QVEVVTQDERKALHTTASLRCSLKTSQEPLIVTWQKKKAVSPENMVTYSKTHGVVIQPAYKDRINVTELGLWNSSITFWNTTLEDEGCYMCLFNTFGSQKVSGTACLTLYVQPIVHLHYNYFEDHLNITCSATARPAPAISWKGTGTGIENSTESHFHSNGTTSVTSILRVKDPKTQVGKEVICQVLYLGNVIDYKQSLDKG
modifications: biotin at the biotinylation site (form put on streptavidin coated fluorescent beads)
notes: mouse CD200, extracellular domains; also called soluble CD200; soluble purified CD200; source: 293T cells, transfected (pEF-BOS), tissue culture supernatant concentrated and biotinylated (on beads); purified and gel filtered (SPR)
